Test results taken from the supplement of paper PMC9170038.

system: K4 kissing-loop RNA reporter; experiment: apparent KD of K4 kissing-loop reporter; higher = weaker reporter binding; conditions: Eterna round: R107; input ligand: theophylline 20 uM
Protocol: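 RNA-MaP round R107: designed RNA switches with theophylline, tryptophan, arginine or FMN aptamers are transcribed on-chip within common flanks. They are titrated with a labelled K4 kissing-loop RNA reporter in RNA-MaP buffer (100 mM Tris pH 7.5, 80 mM KCl, 4 mM MgCl2), without ligand or with the indicated ligand. Median apparent KD per design.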
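Note: bound reporter read as fluorescence of individual clusters on recovered sequencing chips by microscopy, with normalized cluster intensities fitted with a binding model.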

Row | Sequence | apparent KD of K4 kissing-loop reporter [nM]
1 | AAACAUAAGUCUGAUACCAGCCUGGGAGAAGUGAUGUUUCUCGGUGCAUAACGCCUAUAAGGCCCUUGGCAGCAGCAUGCGCUUC [theeternabot_sameState_KL_Theo_B_10] | 471
2 | UAUUCUGUUCGAAAGAACGGAAUUUCGGAAGGAGCGCGAGAAAUCGCAGGUAGGUCGCCGAAAUUAUUAGGUAGUGAUGUUACCU [Arginine A K4 6] | 101
3 | AUUAAUUUCAGAGGAUAUGCUUUAUUAUUAUUUUUAAAUAAUAAAUGCAGUGAUGUUGCUUAUUAUGCAGAAGGCUGAUUUAUAA [JR_SSFMNB_Sub014] | 586
4 | UUUGCAAAGUCGGCCGCCACUCCGGGCCCUAUAAAUGGGCGCAGUGAUGUUGCGGCUAGGCCUCUGAGGACCGGGACUUUGUAAA [Inusleve] | 77.2
5 | GCCUGUGCACGAAGGAGCGCCGUGACAGGUUACUGCCUUGGGCAGUGAUGUUGCUCAAUCUGGCAGGUAGGUCGCGUGCACAGGC | 138
6 | GCCUUUGUACAGUCCGUUUGUCAUGUGGAUACCAGCAGGAUAGCUUGCCCUUGGCAGCCAUCCAUUUAAUGUAGUGAUGUUACGC [theeternabot_exclusion_KL_Theo_A_13] | 412
7 | AUUUAGACGAGUGAUGUUCGUGUUAUUACAGAGGAUAUGCGUAAUUGCAGAAGGCUGUAUUUAUAUAUGUUAUGUAAUUUUAAAA [JR_ExcFMNA_Sub007] | 99.4
8 | CCGGCCCGGCCGGAUACCAGUGCGCCGCUGUGAACUGCGGGCCCAGAGUGAUGUUCGGGACACCCUUGGCAGCCGCCUGGGUCGC [#2 Same State - Theophylline B Attempt #26 (HarryS)] | 325
9 | GACUCAUGUAGAAGGAGCGUCAGAAGUUAUAGACAUGAGUGAUGUUCAUGUUAGCUGAUUUGACAGGUAGGUCGCUACAGCAGGA [KL-SSArg B16 #analogue] | 114
10 | UGGCAAGUGAUGUUUGCGUUUCCGCAGGAUACCAGUCUGUCUUGAGACCCUUGGCAGCCUGGGUACAGUCCAAGCGGUCACACGA [theeternabot_exclusion_KL_Theo_A_38] | 375
11 | UGGAGUUGACGAAAAGUCAACUCCUGAGAAGGAGCGGACGAAAGUCCAGGUAGGUCGCUCACUACCAGUGAUGUUGGUACUGAAA | 229

same assay, conditions: Eterna round: R107; input ligand: tryptophan 2.4 mM

Row | Sequence | apparent KD of K4 kissing-loop reporter [nM]
12 | UUCUAAAUGUCUGAUACCAGAGAAAAUAUAUGUAGUGAUGUUAUAUACAAAUUUAAUAAGCUCCCUUGGCAGCAGUAUGAAUUUU [AstrosExc-TheB#13] | 595
13 | AGCCGAAAGGCGAGUGCUGUCGCUCCGGAAGGAGCGCAGGAAACUGCAGGUAGGUCGCCGGAGUGAUGUUUUGGUGCAGCACUCA [Omei KL Arginine A Exc B v7] | 134
14 | UCCUGCAAUCUGCCACGAAAGUGGAUUGAUACCAGAGUCGAAAGACUCCCUUGGCAGCGAGUGAUGUUCGUUGCAGGUAAAUAAA [MatMod 7 - Jieux - Exclusion - Theophylline A] | 149
15 | AUUCGUUUAUGUGAUACCAGACUUUGCAGUGAUGUUGCAUUAAUUUUUGAUUAUUAGUUUGUCCCUUGGCAGCACUAUUUAUUUA [JR_SSTheophyB_Sub004] | 36.6
16 | UCGAACGAUGGAAGGAGCGCUCGUCAGUCCUGCGAGUGAUGUUCGUGGGUAAAUAGUCGCGAGCAGGUAGGUCGCCAUCUUGAGC [Indiermaar] | 125
17 | UUCAGGUGUUCGGCCGCCACUCCAGUGAUGUUGGAGUGGCUUCACAAGGGCCAGGACAAUGUAAGGAGGACCGGGAAUAUCGCAG [Quonerar] | 134
18 | CCUAUCUCAUACGAUACCAGUCAAAAUAUAAUUAACCAGUGAUGUUGGAUUUACCAAGGAGACCCUUGGCAGCGUAUGGGAUAGG [Ex Theophylline B K4 18] | 540
19 | UCCUGCAAUCCGCCACGAAAGUGGAUGGAUACCAGAGUCGAAAGACUCCCUUGGCAGCCAGUGAUGUUGGAAGCAGGUAAAUAAA | 596
20 | AAUUUAUGAUCUGAUACCAGACUUUAUCUUGUUUAUAAGUCAAGUGAUGUUUGACUAUUAGUCCCUUGGCAGCAGUAUUGUUUAA [#17 K4 Theophylline B Same State] | 239
21 | GGAUAGGACUGAGGAUAUGGGCUAGGCAAGAAUAACUUGUCUAGCAAAUCCAUGAGGAGUGAUGUUCCAGAAGGCGGUCCUAUCG [FmnBX 1 U10+G76] | 231
22 | UAGUCAUACAGAGGAUAUCGUAUGAGUGAUGUUCAUAUGCGUACAUCAACUUGAUGUACACCUAGACGAGAAGGCUGUAUGACUA [FMB B SS t6a] | 227
23 | UGAUAGGACAGAAGGAGCGGAAGUGAUGUUUCCAAAAGGAGAGGUCGACAAAGUCGACCCUUCCAGGUAGGUCGCUGUCCUAUCU [ArgBX 10 #Palindromic #SwitchBubble #StaticStem] | 86.7
24 | GCGUGCCAUGCAGGAUAUAGUUGUUCGAGUGAUGUUCGAGCCUUGCUAAGUUCGGAGCAUCAGCUUCUAGAAGGGCAUGGCACGC | 347
25 | UUCUGCAUCUCGGCCGCCACUCACUAGUGAUGUUAGUAAGGAGCGACUAGAAAAGUCCAGUUAAUGAGGACCGGGAGAAGCUCUU [Exclusion Tryptophan B GF 1] | 217
26 | AGGGCUGAGAGCGAUACCAGCGGUAACUGUAUGGUCCAAUAGAGUGAUGUUUUAUAGAGCCGCCCUUGGCAGCGCAAUCUAUUAG [XTheo-B5] | 129
27 | AUCUUGUUUGGAGGAUAUUCUUUAUUCGACAUAACCUUCUAUAAGGUGCAGUGAUGUUGCAAUAUAGGAGAAGGUCGAGUGAGAU [Exclusion FMN B GF 17] | 188
28 | UAAGAAUAAGUAGCAGUGAUGUUGCUACUGCGAGGACCGGUACGGCCGCCACUCGAGUCCUCGAAGCGUCACUGAACGAGGAAUA [whbob_SS_Tryp_A_m13] | 187
29 | UGUCAUUGGUCUGAUACCAGAAGAAAUCUGGAGUGAUGUUCCAAGUACGACAAAAGUCGCUUCCCUUGGCAGCAGACCGAUGACU [TheoBS 21 #SwitchBubble 13 #StaticStem] | 683
30 | GCUAGGCAUGCAGGAUAUCGUGGAGUGAUGUUCCGUUGGCUGCUAGCGGAAAACGCUAGCAGCCUACGAGAAGGGCAUGCCUAGC | 368
31 | UAACUUGCAGUGAUGUUGCAAGAACUGGAUACCAGCAUGGAAACAUGCCCUUGGCAGCCAGAAGCUGGCUGCUUGUAAUGUCAGC [Design6] | 138
32 | CCUUCUCUUGGUAGUGAUGUUAUCAAGGACAAGGAUAUCAUCUCAAUGAGAAGGUGUCCUUGAUAACAUGGAGGUCUGAAACAGA [Omei KL FMN A Exc C v8] | 615

Row | Sequence | apparent KD of K4 kissing-loop reporter [nM]
33 | CGCCGCAAGGCGAGCGCUCCCACUCCGGAAGGAGCGCCCGCAAGGGCAGGUAGGUCGCCGGAGUGAUGUUCCGGUGGAGGGCUCG [#2 Exclusion - Arginine A Attempt #15 (Inspired by Omei)] | 439
34 | UGUCAUUGGUCGGCCGCCACUUCAUAAAGAGUGAUGUUCUAAAAGACGGAUCGAAAGAUCUGUCGAAGGACCGGGAUCGAUGACU [FiskerMod 11 - Jieux - Same State - Tryptophan B] | 275
35 | AAAUUGUUUAGAGGAUAUUCUUUAUUCGACAUAACCUUCUAUAAGGUGCAGUGAUGUUGCAAUAUAGGAGAAGGCUGAGCGAUAA [Exclusion FMN B Gf 14] | 178
36 | CGCAGUGAUGUUGCGAGUAGCUACAGGGAAGGAGCGUGCUAGAGCACAGGUAGGUCGCCCACGCAGUGAUGUUGUGUCAAAGGGU [Exclusion Arginine A GF 11] | 146
37 | UCUGCUGUAUAUGAUACCAGCAGUGAGAGACCAGAAGUAUAGUGAUGUUAUAUGAGAGAAUGCCCUUGGCAGCGUGUGCGGGUGG [SSTheophylB.Z] | 61.6
38 | AGACCUCAGUGAUGUUGAGGUAACACUGAUACCAGCGACUUGAUUCGCCCUUGGCAGCAGUCCACCGAGGUAUCUGAUCAGGUCA [#25 K4 Theophylline A Exclusion] | 140
39 | GCGCGCGGCGGAGGAUAUAGCAGGUGAUCCGAGAAAGUGAGUGAUGUUUACGGAGAUGAUGAUAUGUUAGAAGGCCGCCGCGCGC [abcdefghijklmnopqrstuv] | 558
40 | GCAAAACUCAGUGAUGUUGAGAUAUCGGAAGGAGCGCGUGAAAACGCAGGUAGGUCGCCGAUUCAAUGAGUUUCUCGUUGUUUGC [Arginine A K4 20] | 288
41 | ACCCGGGCCCGAAAGGGCCCGGGAAGAGAUACCAGCAGCGAAAGCUGCCCUUGGCAGCUCACUUAGUGAUGUUGAGUAUAGGGUA [#22 K4 Theophylline A Same State] | 361
42 | UGUACCGAGUCAGGAUAUGGCGUCGAAAGACGAAACCAGUGAUGUUGGAAUCGAUCGAAAGAUCGUCCAGAAGGGACUUGGUACU [FmnBS 21 #SwitchBubble #StaticStem #DoubleMagnetSystem] | 359
43 | AAACAUAAGUCUGAUACCAGCCUGGGAGAAGUGAUGUUUCUCGGUGCAUAACGCCUAUAAGGCCCUUGGCAGCAGCAUGCGCUUC [theeternabot_sameState_KL_Theo_B_10] | 516
44 | UAUUCUGUUCGAAAGAACGGAAUUUCGGAAGGAGCGCGAGAAAUCGCAGGUAGGUCGCCGAAAUUAUUAGGUAGUGAUGUUACCU [Arginine A K4 6] | 115
45 | AUUAAUUUCAGAGGAUAUGCUUUAUUAUUAUUUUUAAAUAAUAAAUGCAGUGAUGUUGCUUAUUAUGCAGAAGGCUGAUUUAUAA [JR_SSFMNB_Sub014] | 545
46 | UUUGCAAAGUCGGCCGCCACUCCGGGCCCUAUAAAUGGGCGCAGUGAUGUUGCGGCUAGGCCUCUGAGGACCGGGACUUUGUAAA [Inusleve] | 179
47 | GCCUGUGCACGAAGGAGCGCCGUGACAGGUUACUGCCUUGGGCAGUGAUGUUGCUCAAUCUGGCAGGUAGGUCGCGUGCACAGGC | 102
48 | GCCUUUGUACAGUCCGUUUGUCAUGUGGAUACCAGCAGGAUAGCUUGCCCUUGGCAGCCAUCCAUUUAAUGUAGUGAUGUUACGC [theeternabot_exclusion_KL_Theo_A_13] | 338
49 | AUUUAGACGAGUGAUGUUCGUGUUAUUACAGAGGAUAUGCGUAAUUGCAGAAGGCUGUAUUUAUAUAUGUUAUGUAAUUUUAAAA [JR_ExcFMNA_Sub007] | 73.2
50 | CCGGCCCGGCCGGAUACCAGUGCGCCGCUGUGAACUGCGGGCCCAGAGUGAUGUUCGGGACACCCUUGGCAGCCGCCUGGGUCGC [#2 Same State - Theophylline B Attempt #26 (HarryS)] | 341
51 | GACUCAUGUAGAAGGAGCGUCAGAAGUUAUAGACAUGAGUGAUGUUCAUGUUAGCUGAUUUGACAGGUAGGUCGCUACAGCAGGA [KL-SSArg B16 #analogue] | 121
52 | UGGCAAGUGAUGUUUGCGUUUCCGCAGGAUACCAGUCUGUCUUGAGACCCUUGGCAGCCUGGGUACAGUCCAAGCGGUCACACGA [theeternabot_exclusion_KL_Theo_A_38] | 285
53 | UGGAGUUGACGAAAAGUCAACUCCUGAGAAGGAGCGGACGAAAGUCCAGGUAGGUCGCUCACUACCAGUGAUGUUGGUACUGAAA | 164
